“And” between values parts separate entries of the source, which are not always exact repeats. Identical values can stand only once. Blank lines part the entries; values can stand above or below the substance they belong to.
Assays:
[1] = target: LapD (Pseudomonas fluorescens Pf0-1), full-length, non-fluorescent, detergent-solubilized (Pseudomonas fluorescens Pf0-1) (UniProt Q3KK31); assay: SEC-MALS; LapD (~28 μM) incubated with 100 μM c-di-GMP, concentrated ~5-fold; 20 μM c-di-GMP in the mobile phase
[2] = target: LapD (Pseudomonas fluorescens Pf0-1), full-length, non-fluorescent, detergent-solubilized (Pseudomonas fluorescens Pf0-1) (UniProt Q3KK31); assay: SEC-MALS; LapD incubated with 100 μM c-di-GMP and a 3-fold molar excess of LapG over LapD dimer, concentrated; 20 μM c-di-GMP in the mobile phase
[3] = target: LapD (Pseudomonas fluorescens Pf0-1), full-length, non-fluorescent, detergent-solubilized (Pseudomonas fluorescens Pf0-1) (UniProt Q3KK31); assay: SEC-MALS; LapD incubated with LapG and c-di-GMP; c-di-GMP omitted from the mobile phase
[4] = target: LapG labeled with Oregon Green 488 maleimide at C135 (Pseudomonas fluorescens Pf0-1); assay: fluorescence polarisation; fluorescence anisotropy; 1 µM Oregon Green 488-labeled LapG fixed, detergent-solubilized LapD titrated 1–36 µM; without c-di-GMP; apparent
[5] = target: LapG labeled with Oregon Green 488 maleimide at C135 (Pseudomonas fluorescens Pf0-1); assay: fluorescence polarisation; fluorescence anisotropy; 1 µM Oregon Green 488-labeled LapG fixed, detergent-solubilized LapD titrated 1–36 µM; with 100 µM c-di-GMP; apparent
[6] = target: LapD (Pseudomonas fluorescens Pf0-1), full-length, non-fluorescent, detergent-solubilized (Pseudomonas fluorescens Pf0-1) (UniProt Q3KK31); assay: SEC-MALS; apo protein, ~10 mg/ml (~140 μM), Superdex 200 10/300; 25 mM Tris-HCl pH 7.6, 250 mM NaCl, 0.005% LMNG, 0.04% CHAPS; protein-conjugate analysis
[7] = target: LapD–sfGFP (native LapD with C-terminal monomeric superfolder GFP) (Pseudomonas fluorescens Pf0-1) (UniProt Q3KK31); assay: as above
[8] = target: LapD^TMcys lacking sfGFP (non-fluorescent; C304A, C397S) (Pseudomonas fluorescens Pf0-1) (UniProt Q3KK31); assay: as above
[9] = target: LapD^TMcys-A602C lacking sfGFP (non-fluorescent) (Pseudomonas fluorescens Pf0-1) (UniProt Q3KK31); assay: as above

stoichiometry N [1]: 4 and 2 | stoichiometry N [2]: 4 | stoichiometry N [3]: 2 | Kd [4]: 11.7 µM | Kd [5]: 1.9 µM | stoichiometry N [6]: 2
Substance: LapD (Pseudomonas fluorescens Pf0-1), full-length, non-fluorescent, detergent-solubilized (from UniProt Q3KK31 1-648) (receptor)

stoichiometry N [7]: 2
Substance: LapD–sfGFP (native LapD with C-terminal monomeric superfolder GFP) (from UniProt Q3KK31 1-648) (receptor)

stoichiometry N [8]: 2
Substance: LapD^TMcys lacking sfGFP (non-fluorescent; C304A, C397S) (from UniProt Q3KK31 1-648) (receptor)

stoichiometry N [9]: 2
Substance: LapD^TMcys-A602C lacking sfGFP (non-fluorescent) (from UniProt Q3KK31 1-648) (receptor)
